The values below come from patent US6423503 (HYBRITECH, dated 2002).

The chains are these.
B1: [-4]pPSA (enzyme)
chain: not shown
notes: also called [-4]proPSA
B2: [-2]pPSA (enzyme)
chain: not shown
notes: also called [-2]proPSA
B3: [-1]pPSA (enzyme)
chain: not shown
B4: [+5]PSA (enzyme)
chain: not shown
notes: I equated '[+5]PSA' with 'PSA clipped after Gly4'; also called PSA clipped after Gly4

For the assay, the target named is T1, α1antichymotrypsin (ACT) (human, UniProt P01011 24-423).
T1 construct: Used in excess in the incubation with PZ-N PSA
T1 sequence (looked up): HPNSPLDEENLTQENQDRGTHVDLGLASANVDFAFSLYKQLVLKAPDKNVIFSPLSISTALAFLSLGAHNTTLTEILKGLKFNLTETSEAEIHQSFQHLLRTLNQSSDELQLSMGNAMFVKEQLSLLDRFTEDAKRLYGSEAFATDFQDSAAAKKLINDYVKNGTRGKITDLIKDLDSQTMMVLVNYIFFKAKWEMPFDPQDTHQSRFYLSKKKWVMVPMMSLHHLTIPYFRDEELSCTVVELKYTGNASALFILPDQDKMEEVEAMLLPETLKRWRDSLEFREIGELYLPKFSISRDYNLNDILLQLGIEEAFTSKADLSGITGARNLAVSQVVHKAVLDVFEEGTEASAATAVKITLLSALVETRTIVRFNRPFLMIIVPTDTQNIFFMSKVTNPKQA
As to the kind of experiment: incubation with excess ACT, HIC-HPLC, N-terminal sequencing. As for the experimental part:
Figure 4: FIG. 4 is HIC-HPLC profile of the reaction mixture of PZ-N PSA incubated with excess ACT. […] Peak 2 is the residual excess active ACT. Peak 3 is the covalent PSA-ACT complex.
The original profile of this PZ-N sample is seen in FIG. 1. […] Peak 2 is the residual excess active ACT remaining after incubation. […] The [−2]pPSA is a truncated form of pPSA which contains the last two amino acids of the 7 amino acid pro leader peptide. PPSA is expressed with a heptapeptide pro leader sequence consisting of APLILSR. Thus, the [−2] pPSA contains the serine-arginine dipeptide on the N-terminal isoleucine of mature PSA. The minor peak eluting at 12 min contains the [−4]pPSA. The retention time of [−4]pPSA has been reported previously (10).
Take B1: the binding result is given as “no binding”. For the molecule B2, the binding result is given as “no binding”.

Take B3: the binding result is on record as “no binding”. For B4, the binding result is listed as “no binding”.
